Measurements published in patent US20230183753A1, “Methods of in Vitro Cell Delivery” (Intellia Therapeutics, Inc., priority 2020, published 2023).
Oligonucleotides are written 5' to 3', each unit as a sugar letter and its base; * is a phosphorothioate linkage, no mark a phosphodiester; rarer units and linkages stand in square brackets, end groups in braces. Plain capitals give the bases only. m = 2'-O-methyl; r = 2'-OH (RNA)

How the values were obtained:
[1] = tested on: B2M, TRAC, TRBC1/2, CIITA; assay: NGS editing profile of T cells with BC22n or Cas9 mRNA, single or four guides, LNP titration, Example 16A; assay type: cell-based, human; settings: LNP;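 note: activated T cells exposed to LNPs 72 h after activation, kept at 37 °C, harvested on day 10 post activation, editing measured by NGS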
Method: Cells were expanded in T cell basal media for 72 hours prior to LNP transfection.
LNPs were mixed to fixed total mRNA weight ratios of 6:3:2 for editor mRNA, guide RNA, and UGI mRNA respectively as described in Table 12. […] LNP mixtures were incubated for 5 minutes at 37° C. in T cell basal media substituting 6% cynomolgus monkey serum (Bioreclamation IVT, Cat. CYN220760) for fetal bovine serum.
T cells were incubated at 37° C. with 5% CO2 for the duration of the experiment.
In total, T cells were exposed to 6 different LNPs simultaneously (editor mRNA, UGI mRNA, 4 guides).

B2M, CD3, MHC II = assay: Flow cytometry of antigen negative T cells (B2M, CD3, MHC II) after BC22n or Cas9 editing, Example 16A; assay type: cell-based, human
From the text: Cells were subsequently washed, processed on a Cytoflex instrument (Beckman Coulter) and analyzed using the FlowJo software package. T cells were gated based on size, shape, viability, and antigen expression.

[2] = multiple guide delivery (four guides simultaneously), locus of the guide assayed, editor BC22n, total RNA 8.6 ng
[3] = multiple guide delivery (four guides simultaneously), locus of the guide assayed, editor BC22n, total RNA 17.2 ng
[4] = multiple guide delivery (four guides simultaneously), locus of the guide assayed, editor BC22n, total RNA 34.4 ng
[5] = multiple guide delivery (four guides simultaneously), locus of the guide assayed, editor BC22n, total RNA 68.8 ng
[6] = multiple guide delivery (four guides simultaneously), locus of the guide assayed, editor BC22n, total RNA 137.5 ng
[7] = multiple guide delivery (four guides simultaneously), locus of the guide assayed, editor BC22n, total RNA 275.0 ng
[8] = multiple guide delivery (four guides simultaneously), locus of the guide assayed, editor BC22n, total RNA 550.0 ng
[9] = multiple guide delivery (four guides simultaneously), locus of the guide assayed, editor Cas9, total RNA 8.6 ng
[10] = multiple guide delivery (four guides simultaneously), locus of the guide assayed, editor Cas9, total RNA 17.2 ng
[11] = multiple guide delivery (four guides simultaneously), locus of the guide assayed, editor Cas9, total RNA 34.4 ng
[12] = multiple guide delivery (four guides simultaneously), locus of the guide assayed, editor Cas9, total RNA 68.8 ng
[13] = multiple guide delivery (four guides simultaneously), locus of the guide assayed, editor Cas9, total RNA 137.5 ng
[14] = multiple guide delivery (four guides simultaneously), locus of the guide assayed, editor Cas9, total RNA 275.0 ng
[15] = multiple guide delivery (four guides simultaneously), locus of the guide assayed, editor Cas9, total RNA 550.0 ng
[16] = single guide delivery, editor BC22n, total RNA 8.6 ng
[17] = single guide delivery, editor BC22n, total RNA 17.2 ng
[18] = single guide delivery, editor BC22n, total RNA 34.4 ng
[19] = single guide delivery, editor BC22n, total RNA 68.8 ng
[20] = single guide delivery, editor BC22n, total RNA 137.5 ng
[21] = single guide delivery, editor BC22n, total RNA 275.0 ng
[22] = single guide delivery, editor BC22n, total RNA 550.0 ng
[23] = single guide delivery, editor Cas9, total RNA 8.6 ng
[24] = single guide delivery, editor Cas9, total RNA 17.2 ng
[25] = single guide delivery, editor Cas9, total RNA 34.4 ng
[26] = single guide delivery, editor Cas9, total RNA 68.8 ng
[27] = single guide delivery, editor Cas9, total RNA 137.5 ng
[28] = single guide delivery, editor Cas9, total RNA 275.0 ng

B1: G016206: guide targeting TRBC1/2 (SEQ ID NO: 713) (nucleic acid)
guide: mC*mG*mC*rUrGrUrCrArArGrUrCrCrArGrUrUrCrUrArGrUrUrUrUrArGrAmGmCmUmAmGmAmAmAmUmAmGmCrArArGrUrUrArArArArUrArArGrGrCrUrArGrUrCrCrGrUrUrArUrCrAmAmCmUmUmGmAmAmAmAmAmGmUmGmGmCmAmCmCmGmAmGmUmCmGmGmUmGmCmU*mU*mU*mU
Molecule B1 has a C-to-A/G % mean [1, 2] of 2.6%, a C-to-T % mean [1, 2] of 11.6% and an Indel % mean [1, 2] of 2.8%. It also gave a C-to-A/G % mean [1, 3] of 3.6%, a C-to-T % mean [1, 3] of 23.4% and an Indel % mean [1, 3] of 2.6%. It also gave a C-to-A/G % mean [1, 4] of 3.7%, a C-to-T % mean [1, 4] of 38.5% and an Indel % mean [1, 4] of 2.9%. It also gave a C-to-A/G % mean [1, 5] of 2.3%, a C-to-T % mean [1, 5] of 55.6% and an Indel % mean [1, 5] of 2.4%. For the same molecule, the C-to-A/G % mean [1, 6] was 1.8%, the C-to-T % mean [1, 6] was 72.4% and the Indel % mean [1, 6] was 1.7%. The C-to-A/G % mean [1, 7] was 1.9%, the C-to-T % mean [1, 7] was 85.1% and the Indel % mean [1, 7] was 1.7%. For the same molecule, the C-to-A/G % mean [1, 8] was 2.2%, the C-to-T % mean [1, 8] was 89.8% and the Indel % mean [1, 8] was 0.9%. The C-to-A/G % mean [1, 9] was 0.7%, the C-to-T % mean [1, 9] was 0.2% and the Indel % mean [1, 9] was 2.3%. It also gave a C-to-A/G % mean [1, 10] of 0.7%, a C-to-T % mean [1, 10] of 0.3% and an Indel % mean [1, 10] of 4.2%. The C-to-A/G % mean [1, 11] was 0.5%, the C-to-T % mean [1, 11] was 0.1% and the Indel % mean [1, 11] was 6.6%. For the same molecule, the C-to-A/G % mean [1, 12] was 0.5%, the C-to-T % mean [1, 12] was 0.4% and the Indel % mean [1, 12] was 12.3%. The C-to-A/G % mean [1, 13] was 0.5%, the C-to-T % mean [1, 13] was 0.2% and the Indel % mean [1, 13] was 17.8%. For the same molecule, the C-to-A/G % mean [1, 14] was 0.5%, the C-to-T % mean [1, 14] was 0.1% and the Indel % mean [1, 14] was 33.0%. It also gave a C-to-A/G % mean [1, 15] of 0.3%, a C-to-T % mean [1, 15] of 0.3% and an Indel % mean [1, 15] of 43.3%. For the same molecule, the C-to-A/G % mean [1, 16] was 6.1%, the C-to-T % mean [1, 16] was 23.7% and the Indel % mean [1, 16] was 6.1%. It also gave a C-to-A/G % mean [1, 17] of 6.8%, a C-to-T % mean [1, 17] of 42.4% and an Indel % mean [1, 17] of 6.8%. For the same molecule, the C-to-A/G % mean [1, 18] was 5.7%, the C-to-T % mean [1, 18] was 60.1% and the Indel % mean [1, 18] was 5.9%. The C-to-A/G % mean [1, 19] was 4.3%, the C-to-T % mean [1, 19] was 73.2% and the Indel % mean [1, 19] was 4.7%. It also gave a C-to-A/G % mean [1, 20] of 3.6%, a C-to-T % mean [1, 20] of 81.7% and an Indel % mean [1, 20] of 3.7%. For the same molecule, the C-to-A/G % mean [1, 21] was 2.3%, the C-to-T % mean [1, 21] was 91.0% and the Indel % mean [1, 21] was 2.8%. It also gave a C-to-A/G % mean [1, 22] of 2.0%, a C-to-T % mean [1, 22] of 93.6% and an Indel % mean [1, 22] of 1.7%. It also gave a C-to-A/G % mean [1, 23] of 0.5%, a C-to-T % mean [1, 23] of 0.3% and an Indel % mean [1, 23] of 8.1%. The C-to-A/G % mean [1, 24] was 0.7%, the C-to-T % mean [1, 24] was 0.3% and the Indel % mean [1, 24] was 14.9%. For the same molecule, the C-to-A/G % mean [1, 25] was 0.8%, the C-to-T % mean [1, 25] was 0.2% and the Indel % mean [1, 25] was 24.1%. For the same molecule, the C-to-A/G % mean [1, 26] was 0.4%, the C-to-T % mean [1, 26] was 0.2% and the Indel % mean [1, 26] was 35.9%. The C-to-A/G % mean [1, 27] was 0.5%, the C-to-T % mean [1, 27] was 0.2% and the Indel % mean [1, 27] was 48.6%. The C-to-A/G % mean [1, 28] was 0.4%, the C-to-T % mean [1, 28] was 0.1% and the Indel % mean [1, 28] was 63.8%. For the same molecule, the “percent cells negative for antigen, CD3 neg, Mean %” value (“percent cells negative … Mean %” for short) (B2M, CD3, MHC II; editor BC22n, total RNA 8.6 ng) was 32.6%, the “percent cells negative … Mean %” value (B2M, CD3, MHC II; editor BC22n, total RNA 17.2 ng) was 53.4% and the “percent cells negative … Mean %” value (B2M, CD3, MHC II; editor BC22n, total RNA 34.4 ng) was 71.9%. The “percent cells negative … Mean %” value (B2M, CD3, MHC II; editor BC22n, total RNA 68.8 ng) was 82.9%, the “percent cells negative … Mean %” value (B2M, CD3, MHC II; editor BC22n, total RNA 137.5 ng) was 90.4% and the “percent cells negative … Mean %” value (B2M, CD3, MHC II; editor BC22n, total RNA 275.0 ng) was 96.0%. The “percent cells negative … Mean %” value (B2M, CD3, MHC II; editor BC22n, total RNA 550.0 ng) was 97.9%, the “percent cells negative … Mean %” value (B2M, CD3, MHC II; editor Cas9, total RNA 8.6 ng) was 7.9% and the “percent cells negative … Mean %” value (B2M, CD3, MHC II; editor Cas9, total RNA 17.2 ng) was 16.1%. The “percent cells negative … Mean %” value (B2M, CD3, MHC II; editor Cas9, total RNA 34.4 ng) was 27.0%, the “percent cells negative … Mean %” value (B2M, CD3, MHC II; editor Cas9, total RNA 68.8 ng) was 40.6% and the “percent cells negative … Mean %” value (B2M, CD3, MHC II; editor Cas9, total RNA 137.5 ng) was 59.4%. The “percent cells negative … Mean %” value (B2M, CD3, MHC II; editor Cas9, total RNA 275.0 ng) was 77.3% and the “percent cells negative … Mean %” value (B2M, CD3, MHC II; editor Cas9, total RNA 550.0 ng) was 86.6%.
